Assay [1] has as its target deglycosylated 92TH023 V1/V2 tag scaffold (HIV-1 92TH023 (subtype A/E)). The assay is described as follows: static cell adhesion assay.
Assay [2] deals with synthetic cyclic 42 amino acid V2 peptide of 92TH023 gp120 (HIV-1 92TH023 (subtype A/E)). Kind of assay: static cell adhesion assay; RPMI8866 cells on immobilised MAdCAM or cV2 92TH023 in buffer with a high concentration of MgCl2.
Assay [3] addresses recombinant A244 gp120 (subtype A/E, GSID) (HIV-1 A244 (subtype A/E)). Kind of assay: SPR. (SPR reads the build-up and loss of mass on a sensor chip optically.)
Assay [4] concerns the target recombinant SIVmac766 gp120 (SIVmac766). Kind of assay: SPR.
Assay [5] deals with synthetic cyclic 42 amino acid V2 peptide of 92TH023 gp120 (HIV-1 92TH023 (subtype A/E)). Kind of assay: SPR.
In assay [6] the target is T1, recombinant soluble α4β7 heterodimer (human, UniProt P13612 35-977; P26010 20-723, disulfide bond joining the acid-base clasp | disulfide bond joining the acid-base clasp).
T1 construct: also called integrin α4β7; not shown: acid coiled-coil clasp peptide, C-terminal, kept; base coiled-coil clasp peptide, C-terminal, kept
Kind of assay: SPR. Conditions: both partners purified.

In assay [1], “integrin α4β7 expressed on the surface of RPMI8866 cells (from UniProt P13612 34-1032; P26010 20-798) (receptor)” returned a fold adhesion against deglycosylated 92TH023 V1/V2 1FD6 of 5 fold. The fold reduction of adhesion in MgCl2 against MnCl2 in assay [2] is 2.5 fold.

“recombinant soluble α4β7 heterodimer (from UniProt P13612 35-977; P26010 20-723) (complex)”: the Kd in assay [3] stood at 7.14 nM; in assay [4], 104 nM; in assay [5] it was 1.15 nM.

For the molecule “soluble α4β1 (from UniProt P13612 35-977; P05556 21-728) (complex)”, in assay [5], the Kd is 9710 nM.

B1: MAdCAM-Ig fusion protein (Fc fusion, human, UniProt Q13477 19-317, looked up)
chain: QSLQVKPLQVEPPEPVVAVALGASRQLTCRLACADRGASVQWRGLDTSLGAVQSDTGRSVLTVRNASLSAAGTRVCVGSCGGRTFQHTVQLLVYAFPDQLTVSPAALVPGDPEVACTAHKVTPVDPNALSFSLLVGGQELEGAQALGPEVQEEEEEPQGDEDVLFRVTERWRLPPLGTPVPPALYCQATMRLPGLELSHRQAIPVLHSPTSPEPPDTTSPESPDTTSPESPDTTSQEPPDTTSPEPPDKTSPEPAPQQGSTHTPRSPGSTRTRRPEISQAGPTQGEVIPTGSSKPAGDQ
notes: also called Hu-MAdCAM-Ig; MAdCAM-1
With B1, the Kd in assay [6] worked out at 0.597 nM.

As usually defined, the Kd is the constant that tells how readily two partners part at equilibrium.

(Values after article PMC6130882 (PLoS Pathogens, 2018).)
